Measurements taken from the supplement of paper PMC9170038.

Legend:
MS2 coat protein [1] = assay: apparent KD of MS2 coat protein, switch ON state; designed switch direction (-1 OFF switch, 1 ON switch): -1; higher = weaker reporter binding; details: FMN input: 0 or 200 uM; Eterna round: R93 (includes R88 designs)
Method in brief: (§1)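 With or without constant ligand, designed RNA switches in 100 mM Tris-HCl pH 7.5, 80 mM KCl and 4 mM MgCl2 were titrated with SNAP-549-labelled MS2 coat protein. Concentrations went up in twofold steps from 0.7 or 1.5 nM to 3 µM. The switches had been transcribed on-chip from Illumina sequencing clusters, and apparent KD is the per-design median of normalised cluster binding-curve fits.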

MS2 coat protein [2] = assay: apparent KD of MS2 coat protein, switch OFF state (with FMN for OFF switches, without FMN for ON switches); designed switch direction (-1 OFF switch, 1 ON switch): -1; higher = weaker reporter binding; details: FMN input: 0 or 200 uM; Eterna round: R93 (includes R88 designs)
Method in brief: as §1

Sequence	apparent KD of MS2 coat protein (MS2 coat protein [1]) [nM]	apparent KD of MS2 coat protein (MS2 coat protein [2]) [nM]
AAGAACUGAGGAUAUACAUGAGGAUCACCCAUGUAAAAGAAAGAGGGAAAAGAGAAAAGUAGAAGGCAGAAGAA [Berenice II]	24.9	32.4
AAGAACUGAGGAUAUACUAAAGAAAUGAAAAGAAAGAAAGAACAUGAGGAUCACCCAUGUAGAAGGCAGAAGAA [Ya'ammu Nubwoserre]	29.9	18
AAGAACUUAGGAUAUACAAGGAAGAAAGAAAAGAAAAGAAAACAUGAGGAUCACCCAUGUAGAAGGAAGUAGAA [EteRNA is fun!]	40.9	21.5
AAGAAGACAGGAUAUACAAAAUAAAAGAAAAGAAAGAAAGAACAUGAGGAUCACCCAUGUAGAAGGGUCAAGAA [Sekhemkare Amenemhat V]	69.9	31.1
AAGAAGAGAGGAUAUACAUGAGGAUCACCCAUGUAAAAGAAAGAAAGGGAAAAGAAAAGUAGAAGGCUCAAGAA [Neferkare-setpenre Ramesses IX]	34.6	45.7
AAGAAGCAAGGAUAUACAUGAGGAUCACCCAUGUAAAAGAAAGAGAAGGGAAAGAAAAGUAGAAGGUGCGAAAA [Ruby 71]	20.2	23.7
AAGAAGCAAGGAUAUACUAAAGAAAUGAAAAGAAAUAAAGAACAUGAGGAUCACCCAUGUAGAAGGUGCAAGAA [Webenre]	50.4	39.3
AAGAAGCUAGGAUAUACUAAAGAAAUGAAAAGAAAUAAAGAACAUGAGGAUCACCCAUGUAGAAGGAGCAAGAA [Djefare]	42.3	18.9
AAGAAGGCAGGAUAUACAAAAUAAAAGAAAAGAAAGAAAGAACAUGAGGAUCACCCAUGUAGAAGGGUCAAGAA [Sankhenre Sewadjtu]	47.9	37.2
AAGAAGGCAGGAUAUACUAAAGAAAUGAAAAGAAAUAAAGAACAUGAGGAUCACCCAUGUAGAAGGGCCAAGAA [Khakherewre]	35.2	24.1
AAGAAGGUAGGAUAUACUAGGGCAACUAAUGCAAAGAUAGGACAUGAGGAUCACCCAUGUAGAAGGGCCAGAAA [JR_Exc002_Sub403]	48	59.6
AAGAAGUCAGGAUAUGCUGCUCGUCACGAAAGUGAUGAGUAGCAGAAGGGACAUGAGGAUCACCCAUGUAAAGA [Exclusion 4.1 (Exclusion4-cac2 - the real original)]	55.2	66.6
AAGAAGUGAGGAUAUACAAAAUAAAAGAAAAGAAAGAAAGAACAUGAGGAUCACCCAUGUAGAAGGCACAAGAA [Sekhemkare Amenemhat V]	22	17.8
AAGAAGUGAGGAUAUACAUGAGGAUCACCCAUGUUAAGAAGAAUUUUAGAGAAAGAAGGUAGAAGGCACAAGAA [JR_Exclusion3_Sub5]	34.7	35.3
AAGAAGUGAGGAUAUCGAAGACUGUCGAAAAGACAGUCGAACGAGAAGGCACAUGAGGAUCACCCAUGUGGGAG [Mat - Exaclusion 4 - Eli mod - D71]	80.5	176
AAGAAGUGAGGAUAUCGUGCUCGUCACAAAAGUGAUGAGUACGAGAAGGCACAUGAGGAUCACCCAUGUAAAGA [Opal 36]	40.1	52.6
AAGAAUCGAGGAUAUACAAGAAAGAAAGAAAAGAAAAGAAAACAUGAGGAUCACCCAUGUAGAAGGCGAUAGAA [EteRNA is fun!]	22	24.6
AAGAAUGGAGGAUAUACAUGAGGAUCACCCAUGUAAAAGAAAGAAGGGAAAGAGAAAAGUAGAAGGCCAAAGAA [Khuinefertemre Taharqa]	26.5	53.8
AAGAUCAGAGGAUAUACAUAAGGUGAUGAAAACAUCGCCAAACAUGAGGAUCACCCAUGUAGAAGGCUGAUCAA [JL EX2 1]	118	231
AAGGGACAUGAGGAUCACCCAUGUGAGGAUAUGAUGCGAAUAAAGAAAUAAUAAAGCAUCAGAAGGCACACCAA [Mat - Exclusion 1 - Eli mod - D67]	82.4	88.5
AAGGGACAUGAGGAUCACCCAUGUUAGGAUAUGCAAAUAACAAACAACAAACAACAAAGCAGAAGGGACAAAAA [Mat - Exclusion 1 - Eli mod - D54]	37.5	29.3
AAGGGACAUGAGGAUCACCCAUGUUAGGAUAUGCUAUGGAAAAUAAAAAUAAAACAUAGCAGAAGGAACAAAAA [Denovo 8]	39.2	61.8
